Results reported in publication PMC3408419 (Molecular Biology of the Cell, 2012).
Where “and” joins values, the source holds several entries; their conditions need not be identical. Equal entries are not always repeated.

Columns and labels:
[1] = target: MBP-Sec16-mOrange (S. cerevisiae) (UniProt P48415); test: single-molecule photobleaching
Sec23/24 complex = Sec23/24 complex (S. cerevisiae, UniProt P15303;P40482); test: liposome flotation
Chain of Sec23/24 complex (P15303 whole entry, chain 1 of 2): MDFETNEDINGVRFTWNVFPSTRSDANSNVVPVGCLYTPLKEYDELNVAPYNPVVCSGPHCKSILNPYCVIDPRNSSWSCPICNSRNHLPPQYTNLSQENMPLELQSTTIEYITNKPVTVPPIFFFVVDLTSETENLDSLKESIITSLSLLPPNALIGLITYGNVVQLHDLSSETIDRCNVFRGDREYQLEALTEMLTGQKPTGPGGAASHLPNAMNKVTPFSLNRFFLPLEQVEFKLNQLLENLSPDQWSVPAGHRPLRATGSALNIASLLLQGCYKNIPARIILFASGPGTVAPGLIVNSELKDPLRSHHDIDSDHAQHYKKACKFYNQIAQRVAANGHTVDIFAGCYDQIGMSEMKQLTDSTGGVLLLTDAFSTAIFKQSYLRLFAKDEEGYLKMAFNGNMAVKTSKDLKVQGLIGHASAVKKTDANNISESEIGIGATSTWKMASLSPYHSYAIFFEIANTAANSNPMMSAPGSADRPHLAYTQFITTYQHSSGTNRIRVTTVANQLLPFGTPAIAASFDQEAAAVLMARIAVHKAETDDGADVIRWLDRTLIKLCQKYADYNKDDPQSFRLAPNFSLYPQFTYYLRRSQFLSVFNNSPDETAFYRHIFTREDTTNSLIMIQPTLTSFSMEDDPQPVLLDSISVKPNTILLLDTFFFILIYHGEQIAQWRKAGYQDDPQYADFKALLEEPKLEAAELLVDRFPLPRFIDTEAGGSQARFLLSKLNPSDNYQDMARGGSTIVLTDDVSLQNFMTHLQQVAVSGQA
Chain of Sec23/24 complex (P40482 whole entry, chain 2 of 2): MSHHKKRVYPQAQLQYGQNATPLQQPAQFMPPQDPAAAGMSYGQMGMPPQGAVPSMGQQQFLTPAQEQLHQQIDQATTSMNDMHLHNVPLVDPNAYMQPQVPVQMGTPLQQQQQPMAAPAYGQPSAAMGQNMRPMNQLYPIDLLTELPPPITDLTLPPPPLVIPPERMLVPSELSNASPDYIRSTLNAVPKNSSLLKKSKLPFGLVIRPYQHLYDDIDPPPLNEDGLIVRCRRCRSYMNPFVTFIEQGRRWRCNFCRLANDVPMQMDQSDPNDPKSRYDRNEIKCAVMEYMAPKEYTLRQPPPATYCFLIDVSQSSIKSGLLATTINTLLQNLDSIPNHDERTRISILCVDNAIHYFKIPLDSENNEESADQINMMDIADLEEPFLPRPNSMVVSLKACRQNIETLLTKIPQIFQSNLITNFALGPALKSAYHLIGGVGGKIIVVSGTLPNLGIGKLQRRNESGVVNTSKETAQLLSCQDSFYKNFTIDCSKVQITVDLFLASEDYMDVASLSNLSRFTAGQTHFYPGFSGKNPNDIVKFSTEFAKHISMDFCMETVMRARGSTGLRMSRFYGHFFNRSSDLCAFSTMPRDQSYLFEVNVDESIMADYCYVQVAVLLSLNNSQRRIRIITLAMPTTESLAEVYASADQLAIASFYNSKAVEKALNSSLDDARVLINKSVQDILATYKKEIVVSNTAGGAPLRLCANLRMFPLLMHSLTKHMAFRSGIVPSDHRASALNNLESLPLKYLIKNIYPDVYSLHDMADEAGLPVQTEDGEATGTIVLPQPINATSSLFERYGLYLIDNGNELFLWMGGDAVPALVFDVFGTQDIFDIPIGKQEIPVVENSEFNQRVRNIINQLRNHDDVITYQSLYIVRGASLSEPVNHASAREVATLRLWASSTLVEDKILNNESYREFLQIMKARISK

| Molecule | stoichiometry N [1] | binding result (Sec23/24 complex) |
| --- | --- | --- |
| MBP-Sec16-mOrange, P48415 1-2195 | 4 and 6 | – |
| Sec13/31 complex (complex) chain 1: MVVIANAHNELIHDAVLDYYGKRLATCSSDKTIKIFEVEGETHKLIDTLTGHEGPVWRVDWAHPKFGTILASCSYDGKVLIWKEENGRWSQIAVHAVHSASVNSVQWAPHEYGPLLLVASSDGKVSVVEFKENGTTSPIIIDAHAIGVNSASWAPATIEEDGEHNGTKESRKFVTGGADNLVKIWKYNSDAQTYVLESTLEGHSDWVRDVAWSPTVLLRSYLASVSQDRTCIIWTQDNEQGPWKKTLLKEEKFPDVLWRASWSLSGNVLALSGGDNKVTLWKENLEGKWEPAGEVHQ chain 2: MVKLAEFSRTATFAWSHDKIPLLVSGTVSGTVDANFSTDSSLELWSLLAADSEKPIASLQVDSKFNDLDWSHNNKIIAGALDNGSLELYSTNEANNAINSMARFSNHSSSVKTVKFNAKQDNVLASGGNNGEIFIWDMNKCTESPSNYTPLTPGQSMSSVDEVISLAWNQSLAHVFASAGSSNFASIWDLKAKKEVIHLSYTSPNSGIKQQLSVVEWHPKNSTRVATATGSDNDPSILIWDLRNANTPLQTLNQGHQKGILSLDWCHQDEHLLLSSGRDNTVLLWNPESAEQLSQFPARGNWCFKTKFAPEAPDLFACASFDNKIEVQTLQNLTNTLDEQETETKQQESETDFWNNVSREESKEKPTVFHLQAPTWYGEPSPAAHWAFGGKLVQITPDGKGVSITNPKISGLESNTTLSEALKTKDFKPLINQRLVKVIDDVNEEDWNLLEKLSMDGTEEFLKEALAFDNDESDAQDDANNEKEDDGEEFFQQIETNFQPEGDFSLSGNIEQTISKNLVSGNIKSAVKNSLENDLLMEAMVIALDSNNERLKESVKNAYFAKYGSKSSLSRILYSISKREVDDLVENLDVSQWKFISKAIQNLYPNDIAQRNEMLIKLGDRLKENGHRQDSLTLYLAAGSLDKVASIWLSEFPDLEDKLKKDNKTIYEAHSECLTEFIERFTVFSNFINGSSTINNEQLIAKFLEFINLTTSTGNFELATEFLNSLPSDNEEVKTEKARVLIASGKSLPAQNPATATTSKAKYTNAKTNKNVPVLPTPGMPSTTSIPSMQAPFYGMTPGASANALPPKPYVPATTTSAPVHTEGKYAPPSQPSMASPFVNKTNSSTRLNSFAPPPNPYATATVPATNVSTTSIPQNTFAPIQPGMPIMGDYNAQSSSIPSQPPINAVSGQTPHLNRKANDGWNDLPLKVKEKPSRAKAVSVAPPNILSTPTPLNGIPANAASTMPPPPLSRAPSSVSMVSPPPLHKNSRVPSLVATSESPRASISNPYAPPQSSQQFPIGTISTANQTSNTAQVASSNPYAPPPQQRVATPLSGGVPPAPLPKASNPYAPTATTQPNGSSYPPTGPYTNNHTMTSPPPVFNKPPTGPPPISMKKRSNKLASIEQNPSQGATYPPTLSSSASPLQPSQPPTLASQVNTSAENVSHEIPADQQPIVDFLKEELARVTPLTPKEYSKQLKDCDKRLKILFYHLEKQDLLTQPTIDCLHDLVALMKEKKYKEAMVIHANIATNHAQEGGNWLTGVKRLIGIAEATLN | – | binds |
